Data set [1] concerns the target T1, p20 (dsRBD of PKR) (UniProt P19525 1-184). In words: SAXS.
The target in the next data set is PKR K296R full length (UniProt P19525 1-551, K296R). Briefly: EMSA. In general terms: A gel shift assay detects complexes by their altered migration in electrophoresis.
The target in data set [2] is T1, p20 (dsRBD of PKR). In words: SAXS. This is another data set of the same source.

The text below walks through data of article PMC3542976.

Read-outs that look alike come from different tables or passages of the source.

T1 sequence (P19525 1-184): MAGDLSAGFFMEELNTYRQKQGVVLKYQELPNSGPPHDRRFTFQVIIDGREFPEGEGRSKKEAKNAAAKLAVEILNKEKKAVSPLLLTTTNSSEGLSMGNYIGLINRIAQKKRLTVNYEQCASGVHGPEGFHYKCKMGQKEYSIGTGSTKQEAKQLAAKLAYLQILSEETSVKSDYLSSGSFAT
Chain of PKR K296R full length (P19525 whole entry K296R): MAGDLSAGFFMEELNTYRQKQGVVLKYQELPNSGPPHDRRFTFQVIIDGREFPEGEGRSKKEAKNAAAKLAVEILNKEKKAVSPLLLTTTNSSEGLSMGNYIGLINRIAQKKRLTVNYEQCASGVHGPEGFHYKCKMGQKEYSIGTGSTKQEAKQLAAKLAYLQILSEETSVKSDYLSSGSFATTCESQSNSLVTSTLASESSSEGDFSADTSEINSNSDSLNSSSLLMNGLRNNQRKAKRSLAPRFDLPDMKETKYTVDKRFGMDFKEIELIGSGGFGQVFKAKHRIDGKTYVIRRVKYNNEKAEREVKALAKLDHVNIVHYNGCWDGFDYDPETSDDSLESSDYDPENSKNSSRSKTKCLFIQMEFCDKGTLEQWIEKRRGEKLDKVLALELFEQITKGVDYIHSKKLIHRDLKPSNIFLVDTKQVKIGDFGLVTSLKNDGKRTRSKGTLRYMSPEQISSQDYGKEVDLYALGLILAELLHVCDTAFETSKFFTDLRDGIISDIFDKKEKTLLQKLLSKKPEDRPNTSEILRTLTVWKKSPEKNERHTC

B1: r(TSA3)/drd(BS) A3-bulged chimeric duplex (mixed)
RNA: GGGAGAGGCAAGUCGUUCGGUCGCGUUCGCAAAUGUCGUCGCGUCUUGUAUGCCACUGUACCC
DNA: GGGTACAGTGGCATACAAGACGCGACGACAGCGAACGCGACCGAACGACTTGCCTCTCCC
modifications: strand 2 is DNA22-RNA16-DNA22 (RNA at 23-38)
Consider B1, for which the binding result with p20 (dsRBD of PKR) [1] and with PKR K296R full length was “binds” throughout.

B2: r(TSA6)/drd(BS) A6-bulged chimeric duplex (mixed)
RNA: GGGAGAGGCAAGUCGUUCGGUCGCGUUCGCAAAAAAUGUCGUCGCGUCUUGUAUGCCACUGUACCC
DNA: B1 DNA
modifications: strand 2 is DNA22-RNA16-DNA22 (RNA at 23-38)
For B2, the binding result with p20 (dsRBD of PKR) [2] and with PKR K296R full length was “binds” each time.
